Test results as given in US20210308260A1.

Biological target: OVA-specific T-cell antigen receptor of OT1 transgenic mice (mouse)
Experiment: flow cytometry, OVA tetramer staining of peripheral blood CD8+ T cells of OT1 mice

OVA tetramer (peptide-MHC) showed a proportion of CD8+ T cells specifically recognized by OVA (tetramer-positive) of 95.3%.
